Measurements taken from patent US20260216242A1, “ALPP-SPECIFIC VARIANT ANTIGEN BINDING MOLECULES” (ALMAC DISCOVERY LIMITED, priority 2022, published 2026).
Residue numbers refer to the chain shown, from its start.

B1: A05: ALPP/ALPPL2 targeting VHH domain, SEQ ID NO: 16; tested C-terminally His-tagged (protein)
VHH: QVQLVESGGGLVQAGASLTLSCAASGFTFNTRSIVWFRQAPGKEREAVSCISKVAGSTYYGDSVQGRFSSSTDNAKNTVSLQMNSLKPEDTAVYTCAASFAPNCYGWSVAANMEYWGEGTMVTVSS
modifications: C-terminal His tag
notes: tested C-terminally His-tagged
B2: F08: ALPP/ALPPL2 targeting VHH domain, SEQ ID NO: 35 (protein)
VHH: QVQLVESGGGSVQAGGSLRLSCAASGPSLSNYAMGWFRQAPGKEREFVAGISWGGGRTSYTDSVKGRFTISRDNAKNTVYLQMNNLKPEDTGVYYCAGRYGRGRNVEYEYDYWGQGTQVTVSS
B3: D04: ALPP/ALPPL2 targeting VHH domain, SEQ ID NO: 26 (protein)
VHH: QVQLVESGGGLVQPGGSLRLSCAASESTFSINVMGWYRQAPGKQRELVATITSGDITNYADSVKGRFTISRDNAENTVYLRTNSLKPEDTAVYYCNARGEYHSGNEYDYWGQGTQVTVSS
B4: E10: ALPP/ALPPL2 targeting VHH domain, SEQ ID NO: 31 (protein)
VHH: QVQLVESGGGLVQAGGSLRLSCAVSGRALSDYNIGWFRQAPGKEREFVARKTWDGSSTRYDDSVKGRFTVSIEDAKNTAYLQMSSLKTEDTAVYYCAAGRYSRARGWEYDYWGQGTQVTVSS
B5: F05: ALPP/ALPPL2 targeting VHH domain, SEQ ID NO: 34 (protein)
VHH: B4 VHH with V24A, L29F, S30G, K51R, E73D, D74N, S84N, A104V
B6: C07: ALPP/ALPPL2 targeting VHH domain, SEQ ID NO: 25 (protein)
VHH: QVQLVESGGGLVQAGESLRLACAASGTIFSGNAVGWYRQAPEKQREWVSSITDYGDTDYAEAVKGRFTISRDNAKNTVYLQMNSLKPEDTAVYYCYVYQRGESEEYWGQGTQVTVSS
B7: E06: ALPP/ALPPL2 targeting VHH domain, SEQ ID NO: 30 (protein)
VHH: QVHLVESGGGLVQAGGSLRLSCAASRRSFSEYAMGWFRQAPGKEREFVAAIGWSGVIEYADSVKGRFTISRDNAKDTVYLQMNSLKPEDTAVYYCAAGLGIRVVSQTPAYWGQGTQVTVSS
B8: D10: ALPP targeting VHH domain, SEQ ID NO: 28 (protein)
VHH: QVQLVESGGGLVQPGGSLRLSCAASGSIFSVNTMGWYRQAPGKQRDLVAVATSGGTIHYADSVKGRFTISRDNAKNTVYLQMNSLKPEDTAVYYCNLVVPYGMIAGDHDYWGQGTKVTVSS
B9: B01: ALPP/ALPPL2 targeting VHH domain, SEQ ID NO: 20 (protein)
VHH: QVQLVESGGGLVQAGGSLRLSCEVTRSPMPIDTMAWYRQAPGRQRELVAIISRSGSTNYADSVKGRFTISRNDTKSTMYKSTMYLKMNTLELEDTGVYYCNAVGLWNGAEYWGQGTQVTVSS
B10: A06: ALPP/ALPPL2 targeting VHH domain, SEQ ID NO: 17; tested C-terminally His-tagged (protein)
VHH: QVHLVESGGGLVQAGGSLRLSCAASGRTFLSMGWFRQAPGKEREFVAAISWTGGSTGYADSVKGRFTISRESDKETMYLQMNSLKPEDTAVYYCAARGDVYYGGDDATRYKYWGQGTQVTVSS
modifications: C-terminal His tag
notes: as for B1

Tested on: not listed separately
Assay: Thermal stability (Protein Thermal Shift assay)
Type: physicochemical
Settings: VHH domains, first derivative analysis
Experimental: Thermal stability assays used Applied Biosystems StepOne Real Time PCR system with the Protein Thermal Shift™ dye kit (Thermo Fisher). The assay mix was set up so that the protein was at a final concentration of 20 µM in 20 μL. 5 μL of Thermal Shift™ buffer was added alongside 2.5 μL 8× Thermal Shift™ Dye. Assays were run using the StepOne software and data analysed using Protein Thermal Shift™ software. All data are from first derivative analysis.

Molecule | Tm
B1 | 69.5 °C
B2 | 77.6 °C
B3 | 59.8 °C
B4 | 71.8 °C
B5 | 70.6 °C
B6 | 70.7 °C
B7 | 81.1 °C
B8 | 69.9 °C
B9 | 82.7 °C
B10 | 73.2 °C

Target: Human ALPPL2 (Homo sapiens, UniProt P10696)
Assay: BLI binding kinetics, human ALPPL2 immobilised on AR2G sensors (KD / KD apparent)
Settings: VHH domains
Experimental: (§1) Binding kinetics were determined using the Biolayer Interferometry (BLI) Octet K2 system (Sartorius). Human ALPP, ALPPL2, ALPL (each fused with a cysteine stabilised leucine zipper) and ALPI, (SEQ ID NO: 265, SEQ ID NO: 266 and SEQ ID NO: 267 and SEQ ID NO: 264 respectively) were immobilised in sodium acetate pH5 buffer to AR2G sensors using amine coupling. All assays were conducted in PBS with a plate temperature of 25° C. Ka (M^−1s^−1), Kd (s^−1) and KD (nM) values were determined using Octet Data Analysis High Throughput software (ForteBio) for Biolayer Interferometry.
(§2) Binding kinetics were determined using the Biolayer Interferometry (BLI) Octet K2 or R4 system (Sartorius). Human ALPP, ALPPL2 and ALPL all fused with a disulphide stabilised leucine zipper (SEQ ID NO: 265, SEQ ID NO: 266, and SEQ ID NO: 267) and ALPI His (SEQ ID NO: 264) were used in BLI experiments. For KD apparent measurements, the ALPP proteins were immobilised in sodium acetate pH5 buffer to AR2G sensors using amine coupling. To measure 1:1 interactions, AHC biosensors were used to immobilise Fc-fused proteins. All assays were conducted in HBS-EP with a plate temperature of 25° C. Ka (M^−1s^−1), Kd (s^−1) and KD (nM) values were determined using Octet Data Analysis High Throughput software (Sartorius) for Biolayer Interferometry.
as §2, with “NO:264)” for “NO: 264)”

Human ALPPL2, sequence (P10696 with tags, fused parts or gaps): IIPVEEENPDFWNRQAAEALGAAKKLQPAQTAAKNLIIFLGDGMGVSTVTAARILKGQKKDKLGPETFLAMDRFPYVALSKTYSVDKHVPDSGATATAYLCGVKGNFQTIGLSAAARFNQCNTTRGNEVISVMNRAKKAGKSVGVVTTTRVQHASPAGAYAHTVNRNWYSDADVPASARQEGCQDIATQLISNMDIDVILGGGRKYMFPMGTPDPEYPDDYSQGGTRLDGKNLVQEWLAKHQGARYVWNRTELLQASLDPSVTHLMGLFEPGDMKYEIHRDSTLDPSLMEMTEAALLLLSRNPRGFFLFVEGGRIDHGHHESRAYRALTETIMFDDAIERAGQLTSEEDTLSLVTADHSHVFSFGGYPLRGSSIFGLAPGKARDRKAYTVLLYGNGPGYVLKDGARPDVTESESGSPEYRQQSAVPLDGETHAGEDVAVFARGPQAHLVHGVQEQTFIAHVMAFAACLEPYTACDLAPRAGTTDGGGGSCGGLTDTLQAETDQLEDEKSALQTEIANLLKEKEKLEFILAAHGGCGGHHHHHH

Molecule | hALPPL2 Ka | hALPPL2 Kd
B2 | 684000 M⁻¹ s⁻¹ | <1e-07 s⁻¹
B3 | 754000 M⁻¹ s⁻¹ | 0.00022 s⁻¹
B4 | 1640000 M⁻¹ s⁻¹ | 0.000141 s⁻¹
B5 | 3740000 M⁻¹ s⁻¹ | 0.000356 s⁻¹
B6 | 471000 M⁻¹ s⁻¹ | 0.000288 s⁻¹
B7 | 1050000 M⁻¹ s⁻¹ | 0.0000875 s⁻¹
B8 | 2300000 M⁻¹ s⁻¹ | 0.0028 s⁻¹
B9 | 482000 M⁻¹ s⁻¹ | 0.00014 s⁻¹
B10 | 133000 M⁻¹ s⁻¹ | 0.000672 s⁻¹

Target: ALPP (Homo sapiens, UniProt P05187)
Assay: BLI binding kinetics, human ALPP immobilised on AR2G sensors (KD / KD apparent)
Settings: VHH domains
Experimental: as §1, §2
as §2, with “NO:264)” for “NO: 264)”

ALPP, sequence (P05187 with tags, fused parts or gaps): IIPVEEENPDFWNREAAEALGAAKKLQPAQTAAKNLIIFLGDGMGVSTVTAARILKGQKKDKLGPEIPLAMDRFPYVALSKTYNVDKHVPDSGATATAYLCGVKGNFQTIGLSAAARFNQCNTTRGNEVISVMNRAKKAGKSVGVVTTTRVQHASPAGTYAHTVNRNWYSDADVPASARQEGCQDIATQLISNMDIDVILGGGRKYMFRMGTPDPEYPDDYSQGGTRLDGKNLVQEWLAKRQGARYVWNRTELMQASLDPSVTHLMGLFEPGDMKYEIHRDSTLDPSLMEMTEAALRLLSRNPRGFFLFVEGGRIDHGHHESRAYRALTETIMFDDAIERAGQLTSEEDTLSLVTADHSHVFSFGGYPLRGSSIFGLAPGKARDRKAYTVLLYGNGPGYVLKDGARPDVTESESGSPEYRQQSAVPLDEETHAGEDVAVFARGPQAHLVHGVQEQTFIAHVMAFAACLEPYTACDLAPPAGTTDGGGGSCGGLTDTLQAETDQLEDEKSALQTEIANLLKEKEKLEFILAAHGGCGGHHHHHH

Molecule | hALPP Ka | hALPP Kd
B1 | 260000 M⁻¹ s⁻¹ | <1e-07 s⁻¹
B2 | 252000 M⁻¹ s⁻¹ | <1e-07 s⁻¹
B3 | 85100 M⁻¹ s⁻¹ | <1e-07 s⁻¹
B4 | 54200 M⁻¹ s⁻¹ | <1e-07 s⁻¹
B5 | 13900 M⁻¹ s⁻¹ | <1e-07 s⁻¹
B6 | 129000 M⁻¹ s⁻¹ | 0.000028 s⁻¹
B7 | 106000 M⁻¹ s⁻¹ | <1e-07 s⁻¹
B8 | 67300 M⁻¹ s⁻¹ | 0.000013 s⁻¹
B9 | 162000 M⁻¹ s⁻¹ | 0.000191 s⁻¹
B10 | 117000 M⁻¹ s⁻¹ | 0.000154 s⁻¹
